Laboratory results from publication PMC10070494, “WSSV exploits AMPK to activate mTORC2 signaling for proliferation by enhancing aerobic glycolysis”.

Molecular target: rGST (UniProt P08515 1-218)
Experiment: EMSA; 1 and 3 μg rGST; Chemiluminescent EMSA Kit (Beyotime), buffer, salt and pH not stated; competitor 10 min then biotin probe 20 min at 25 °C; native 6% polyacrylamide gel
Conditions: protein: recombinant; chain copies: 2; blunt

Chain of rGST (P08515 whole entry): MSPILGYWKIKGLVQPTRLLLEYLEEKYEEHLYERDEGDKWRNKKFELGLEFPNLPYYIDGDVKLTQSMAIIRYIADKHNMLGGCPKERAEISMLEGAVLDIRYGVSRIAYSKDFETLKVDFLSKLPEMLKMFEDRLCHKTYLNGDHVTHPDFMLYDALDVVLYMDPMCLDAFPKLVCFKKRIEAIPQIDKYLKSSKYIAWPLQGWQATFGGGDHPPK

B1: HK-WT probe (dsDNA)
DNA 1: CAAATGACTAGAACGTGCGACATTAGTGAA
DNA 2: TTCACTAATGTCGCACGTTCTAGTCATTTG
**Q.** Does B1 bind?
**A.** no binding
